# According to article doi:10.1101/2021.09.24.461759:
# Target: pre-fusion, protease-resistant, trimeric transmembrane (TM)-deleted spike (S) glycoprotein from SARS-CoV-2 (SARS-CoV-2 (Wuhan-Hu-1) | not stated)
# Test: SEC + other: SDS-PAGE
substance,measurement,value
"pre-fusion, protease-resistant, trimeric transmembrane (TM)-deleted spike (S) glycoprotein from SARS-CoV-2",stoichiometry N,3
